Measured values published in PMC9604439, “Mutation Hotspot for Changing the Substrate Specificity of β-N-Acetylhexosaminidase: A Library of GlcNAcases” (International Journal of Molecular Sciences, 2022).
Where a chain is given by its changes, count along the chain named. Numbers in names are those of the source.

B1: TfHex (β-N-acetylhexosaminidase from Talaromyces flavus) (Talaromyces flavus; E332A) (protein)
chain: VAVNPLPAPRSITWGTSGPISVPHNVDVKLPKNAIINDAWERAWTSIKQLRWVPQATEAPISSYEPFPTVAPTSASTASSTPLPSSSAAAVAARSQKRGHQKGSHEKRGHSQSTLRTVTVTVSDLNADLQAEVDESYTLVLDSGSSTLAITANTTWGALHAFTTLQQLVIYQDNSLIIEQPVHIEDSPLYPWRGVMIDTGRNFITVPKIKEQIDGMALSKLNILHWHLDDSQSWPVHMDTYPQMTNDAYSPWQTYSHEDIKDIIEYARARAVRVVPEVDMPGHSAAGWQQVDPSIVACAHSWWSNDNWPYHTAVAPTPGQLDPLNNKTYGVVEKVYNELSGIFTDDFFHVGGDELQTGCYNFSTYVSDYLAADPSRTYNDVTQYWVDHAFPIFKKIQNRKLVIWEDLIINNPHAPNVSTENLLVQSWNNGLTNINNLTNLGYDVLVSSSDFMYLDCGYGGFVTNDPRYDVMVNPDAVDGLANFNWGGNGGSWCAPYKTWQRIYDYDFTTNLTDAQAAHVKGAVAPLWSEQVDDTVISGKMWPRAAALAELVWSGNKDPKTGDKRTTYMTQRILNFREYLVANGVQAAPLVPKYCLQHPHSCDLYYDQTAVV
notes: secreted via alpha-factor, pPICZαA, Pichia pastoris KM71H, cation-exchange purified; tetramer of two catalytic subunits and two non-covalently linked propeptides
B2: TfHex (β-N-acetylhexosaminidase from Talaromyces flavus) (Talaromyces flavus; E332G) (protein)
chain: B1 chain with A315G
notes: as for B1
B3: TfHex (β-N-acetylhexosaminidase from Talaromyces flavus) (Talaromyces flavus; E332N) (protein)
chain: B1 chain with A315N
notes: as for B1
B4: TfHex (β-N-acetylhexosaminidase from Talaromyces flavus) (Talaromyces flavus; E332T) (protein)
chain: B1 chain with A315T
notes: as for B1

The proteins below were run on CC(=O)N[C@H]1[C@H](Oc2ccc([N+](=O)[O-])cc2)O[C@H](CO)[C@@H](O)[C@@H]1O (assay: discontinuous p-nitrophenolate release assay, non-linear regression). Conditions: McIlvaine buffer pH 5.0, 25 °C.
Assay type: biochemical, Talaromyces flavus

First: B1
Second: B2
The Km of the first is 2-fold lower: 880 ± 70 µM for the first, 1800 ± 200 µM for the second.

Compared with B3, B4 is 1.5-fold lower in Km: 1220 ± 70 µM for the first, 800 ± 100 µM for the second.

First: B1
Second: B2
The kcat of the first is 1.7-fold lower: 30 ± 1 s⁻¹ for the first, 51 ± 2 s⁻¹ for the second.

Going from B3 to B4, the kcat falls from 22.5 ± 0.4 s⁻¹ to 13.3 ± 0.4 s⁻¹ (1.7-fold).
